Reference: FireProtDB (doi:10.1021/bi000610b)
“And” between values parts separate entries of the source, which are not always exact repeats. Identical values can stand only once.

Conditions: Chlamydomonas reinhardtii, Thermal, glycine-HCl 10 mM, reversible: yes, whole UniProt chain shown

B1: Thioredoxin H-type wild type, P80028 (protein)
chain: MGGSVIVIDSKAAWDAQLAKGKEEHKPIVVDFTATWCGPCKMIAPLFETLSNDYAGKVIFLKVDVDAVAAVAEAAGITAMPTFHVYKDGVKADDLVGASQDKLKALVAKHAAA
Tm (pH 2.13, Fluorescence): 35.4 °C | unfolding enthalpy (van 't Hoff) (pH 2.13, Fluorescence): 23.4 kcal/mol | Tm (pH 2.25, CD): 37.7 °C and 34.5 °C | unfolding enthalpy (van 't Hoff) (pH 2.25, CD): 21.5 kcal/mol and 17.9 kcal/mol | Tm (pH 2.25, DSC): 40 °C | Tm (pH 2.25, Fluorescence): 42.7 °C | unfolding enthalpy (van 't Hoff) (pH 2.25, Fluorescence): 31.8 kcal/mol | Tm (pH 2.5, CD): 47.3 °C and 46.6 °C | unfolding enthalpy (van 't Hoff) (pH 2.5, CD): 42.5 kcal/mol and 38.5 kcal/mol | Tm (pH 2.5, DSC): 51.1 °C | unfolding enthalpy (calorimetric) (pH 2.5, DSC): 52.6 kcal/mol | Tm (pH 2.5, Fluorescence): 49.2 °C | unfolding enthalpy (van 't Hoff) (pH 2.5, Fluorescence): 40.9 kcal/mol | Tm (pH 2.75, CD): 57.5 °C and 53.4 °C | unfolding enthalpy (van 't Hoff) (pH 2.75, CD): 59.5 kcal/mol and 54.2 kcal/mol | Tm (pH 3, CD): 63 °C and 61.4 °C | unfolding enthalpy (van 't Hoff) (pH 3, CD): 76.5 kcal/mol and 65.2 kcal/mol | Tm (pH 3, DSC): 66.4 °C | unfolding enthalpy (calorimetric) (pH 3, DSC): 77.4 kcal/mol | Tm (pH 3, Fluorescence): 65.3 °C | unfolding enthalpy (van 't Hoff) (pH 3, Fluorescence): 66.9 kcal/mol | Tm (pH 3.25, DSC): 73.6 °C | unfolding enthalpy (calorimetric) (pH 3.25, DSC): 80.8 kcal/mol
